In patent US20210017289A1 (AbbVie / Abbott, published 2021):

Legend:
[1] = target: T1, human OX40 expressed on cells (human, UniProt P43489 29-277); experiment: cell-based or functional assay
T1 sequence: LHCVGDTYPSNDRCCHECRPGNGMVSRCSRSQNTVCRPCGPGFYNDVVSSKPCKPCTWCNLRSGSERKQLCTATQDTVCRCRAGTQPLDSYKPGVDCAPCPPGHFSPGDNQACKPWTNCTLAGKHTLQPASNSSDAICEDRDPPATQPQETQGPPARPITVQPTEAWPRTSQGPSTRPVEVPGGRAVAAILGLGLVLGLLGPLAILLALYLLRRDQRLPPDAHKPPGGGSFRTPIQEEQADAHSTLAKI

[2] = target: T2, mouse OX40 expressed on 293s cells (mouse, UniProt P47741 20-272); experiment: flow cytometry on 293s-muOX40 cells
T2 construct: also called murine OX40
T2 sequence: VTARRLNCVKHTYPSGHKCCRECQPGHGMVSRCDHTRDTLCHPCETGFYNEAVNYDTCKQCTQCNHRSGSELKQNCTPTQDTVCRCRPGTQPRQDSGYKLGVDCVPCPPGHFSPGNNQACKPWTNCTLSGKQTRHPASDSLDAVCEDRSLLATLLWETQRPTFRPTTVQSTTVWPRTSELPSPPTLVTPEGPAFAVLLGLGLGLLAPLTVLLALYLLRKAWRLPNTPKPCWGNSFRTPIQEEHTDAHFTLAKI
Experimental: (§1) After plating cells, 50 μL of Hu3738 or isotype control antibody at 2 μg/mL were added to corresponding wells in duplicate for each cell line and allowed to incubate on ice for 30 minutes. Following incubation, 200 μL of Dulbecco's Phosphate Buffered Saline (DPBS) was added into each well and plates were spun down at 1000 rpm for three minutes. Supernatants from each well were removed and 50 μL of Cy5-Donkey anti-Human IgG (Jackson ImmunoResearch) secondary antibody was added at a 1:250 dilution, which was then incubated for 30 minutes on ice in the dark. Following the incubation period, 200 μL of DPBS was added prior to spinning down the plate at 1000 rpm for three minutes. Supernatants were removed and each well was re-suspended with 100 μL of DPBS+1% Formaldehyde. Samples were analyzed on the dual laser FACSCalibur flow cytometer (Becton Dickinson).

[3] = target: T3, human OX40 chimera with murine CRDII replacing human CRDII (human/mouse chimera, UniProt P43489 29-277); experiment: flow cytometry on 293s-huOX40-muCRDII cells
T3 chain: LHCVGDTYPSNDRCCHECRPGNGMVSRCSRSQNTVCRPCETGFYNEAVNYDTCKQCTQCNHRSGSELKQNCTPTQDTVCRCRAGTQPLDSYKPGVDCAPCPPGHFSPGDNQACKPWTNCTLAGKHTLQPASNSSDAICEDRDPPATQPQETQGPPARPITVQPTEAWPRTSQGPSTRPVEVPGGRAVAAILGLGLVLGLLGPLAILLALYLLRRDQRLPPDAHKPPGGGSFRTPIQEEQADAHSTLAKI
Experimental: as §1

[4] = target: T1, human OX40 expressed on cells; experiment: flow cytometry on CD3/CD28 bead activated human CD4+ T cells
Experimental: After 24 hours, the beads were removed with a magnet. Cells were counted and resuspended to 1.5×10⁶/mL. An aliquot of the cell suspension (100 μL) was used per stain. Test antibody was titrated in a 4-fold dilution series starting at 1 μg/mL. Cells were stained for 30 minutes and washed twice. A 1:250 dilution of (4 μg/mL) of Goat anti Human Fc specific-PE/well (Jackson ImmunoResearch) was added in 100 μL/well PBS containing 1% BSA. Cells were stained for an additional 30 minutes and washed twice, transferred to tubes and acquired using the BD LSR Fortessa flow cytometer, and analyzed using FACSDiva analysis software version 8.0.1.

[5] = target: T1, human OX40 expressed on cells; experiment: flow cytometry on Jurkat NF-κB reporter cells expressing human OX40
Experimental: A Jurkat NF-κB reporter cell line expressing human OX40 protein was cultured in DMEM containing 10% FBS and penicillin/streptomycin (pen/strep). For the binding assay, each cell line was resuspended at 5 million cells per mL. 50 μL (250,000 cells)/well were transferred to each well of a 500 μL polypropylene 96-well plate (Nunc). A 2× stock of test anti-OX40 antibody or isotype control mAb was prepared in a separate dilution plate at 666, 333, 111, 37.03, 12.34, 4.11, 0.457, 0.152, 0.0508, 0.0169, 0.00564 nM in culture media. Each antibody (50 μL/well) was transferred into respective wells of the assay plate. Cells were incubated with the test anti-OX40 antibody or isotype control antibodies for 30 minutes at 4° C. and washed twice with 250 μL/well of PBS by centrifuging at 800 rpm for 3 minutes. Bound antibody was detected with Cy5-Donkey anti-human IgG (H+L) (Jackson ImmunoResearch) diluted to 2 μg/mL (50 μL/well) in PBS for 30 minutes at 4° C. Cells were washed once with 250 μL/well of PBS, resuspended in PBS containing 1% Formaldehyde and analyzed on a dual laser FACSCalibur (Becton Dickinson).

EC50 With Cross-linker (nM), NF-κB signaling [1]: 0.02 nM
EC50 Without Cross-linker (nM), NF-κB signaling [1]: 22 nM
binding result [2]: no binding (tested: 2 µg/mL)
binding result [3]: no binding (tested: 2 µg/mL)
EC50 [4]: 0.053 nM
EC50 [5]: 0.5 nM
B1: Hu3738 (antibody, V domains shown)
VH: EVQLVESGGGLVQPGGSLRLSCAASGFTFSRYGMSWVRQAPGKGLELVATINSNGGRTYYPDSVKGRFTISRDNAKNSLYLQMNSLRAEDTAVYYCAREGITTAYAMDYWGQGTTVTVSS
VL: DIVMTQSPDSLAVSLGERATINCKASQSVDYDGDSYMHWYQQKPGQPPKLLIYAASILESGVPDRFSGSGSGTDFTLTISSLQAEDVAVYYCQQSNEDPRTFGGGTKVEIKR
notes: Humanized antibody; also called exemplary anti-OX40 antibody Hu3738; Hu3738 VH.1b / Hu3738 VL.1
